Sequences and labels used below:
B1: D. melanogaster dynein light chain LC8 (homodimer) (natural protein)
chain: MSDRKAVIKNADMSEEMQQDAVDCATQALEKYNIEKDIAAYIKKEFDKKYNPTWHCIVGRNFGSYVTHETRHFIYFYLGQVAILLFKSG
notes: dynein light chain LC8, D. melanogaster; homodimer; source: purity verified by SDS-PAGE and size-exclusion chromatography
B3: D. melanogaster dynein light chain Tctex1 (homodimer) (natural protein)
chain: MDDSREESQFIVDDVSKTIKEAIETTIGGNAYQHDKVNNWTGQVVENCLTVLTKEQKPYKYIVTAMIMQKNGAGLHTASSCYWNNDTDGSCTVRWENKTMYCIVSVFGLAV
notes: dynein light chain Tctex1, D. melanogaster; homodimer; source: purity verified by SDS-PAGE and size-exclusion chromatography

Common to all, as to assay: ITC; VP-ITC, 25 °C; 50 mM sodium phosphate, 50 mM sodium chloride, 1 mM sodium azide, pH 7.5; 39 isotherms of eight experiment types (IC in cell or in syringe, two- and three-protein titrations, dissociation; 27 from ref. 8, 12 new) fitted globally to a seven-state model by hierarchical Bayesian inference
The target of test [1] is T1, TI: Tctex1 homodimer with one IC chain bound (half-bound) (D. melanogaster, UniProt Q94524 1-111; Q24246 84-143).
T1 construct: dynein light chain Tctex1, D. melanogaster; as the chain of m3; cytoplasmic dynein intermediate chain, D. melanogaster, construct ICTL; as the chain of m1; source: formed from the purified proteins m1 and m3 in the ITC samples; copies: 2 + 1
T1 sequence 1: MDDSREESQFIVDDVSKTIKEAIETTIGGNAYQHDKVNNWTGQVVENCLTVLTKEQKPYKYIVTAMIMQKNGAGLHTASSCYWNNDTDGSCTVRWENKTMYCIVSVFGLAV
T1 sequence 2: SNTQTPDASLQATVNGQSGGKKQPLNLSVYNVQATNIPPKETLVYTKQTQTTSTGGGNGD
The conditions noted are these: both partners purified.

Test [2] has as its target T2, TII: Tctex1 homodimer with two IC chains bound (D. melanogaster, UniProt Q94524 1-111; Q24246 84-143).
T2 construct: dynein light chain Tctex1, D. melanogaster; as the chain of m3; cytoplasmic dynein intermediate chain, D. melanogaster, construct ICTL; as the chain of m1; source: formed from the purified proteins m1 and m3 in the ITC samples; copies: 2 + 2
T2 sequence 1: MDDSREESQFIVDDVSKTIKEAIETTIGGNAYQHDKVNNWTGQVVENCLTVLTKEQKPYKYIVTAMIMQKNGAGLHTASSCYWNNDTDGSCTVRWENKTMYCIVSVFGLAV
T2 sequence 2: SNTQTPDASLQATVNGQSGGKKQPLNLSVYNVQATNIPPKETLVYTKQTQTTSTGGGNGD
The conditions noted are these: both partners purified.

Test [3] deals with B1. The conditions noted are these: both partners purified.
The target in test [4] is B3. The conditions noted are these: both partners purified.
Test [5] addresses TILI: one IC chain with a half-bound Tctex1 homodimer and a half-bound LC8 homodimer (D. melanogaster) (UniProt Q94524).
The target in test [6] is T3, LII: LC8 homodimer with two IC chains bound (D. melanogaster, UniProt Q24117 1-89; Q24246 84-143).
T3 construct: dynein light chain LC8, D. melanogaster; as the chain of m2; cytoplasmic dynein intermediate chain, D. melanogaster, construct ICTL; as the chain of m1; source: formed from the purified proteins m1 and m2 in the ITC samples; copies: 2 + 2
The conditions noted are these: both partners purified.

Test [7] deals with T4, LI: LC8 homodimer with one IC chain bound (half-bound) (D. melanogaster, UniProt Q24117 1-89; Q24246 84-143).
T4 construct: dynein light chain LC8, D. melanogaster; as the chain of m2; cytoplasmic dynein intermediate chain, D. melanogaster, construct ICTL; as the chain of m1; source: formed from the purified proteins m1 and m2 in the ITC samples; copies: 2 + 1
The conditions noted are these: both partners purified.

Take B1: the results for the dH in test [1] and in test [2] were -12.7 kcal/mol and -25.8 kcal/mol, respectively.

B2: D. melanogaster dynein intermediate chain ICTL (domain or fragment, UniProt Q24246 84-143, looked up)
chain: SNTQTPDASLQATVNGQSGGKKQPLNLSVYNVQATNIPPKETLVYTKQTQTTSTGGGNGD
notes: cytoplasmic dynein intermediate chain (IC), D. melanogaster; source: purity verified by SDS-PAGE and size-exclusion chromatography
Turning to B2, in test [3], the “dH, first IC on the LC8 dimer (state LI)” value was -14.8 kcal/mol and the “dH, second IC on the LC8 dimer (LI to LII)” value was -15.1 kcal/mol. For the same molecule, in test [4], the “dH, first IC on the Tctex1 dimer (state TI)” value is -6.76 kcal/mol and the “dH, second IC on the Tctex1 dimer (TI to TII)” value was -4.97 kcal/mol. The dH in test [5] was -18.1 kcal/mol.

Turning to B3, the dH in test [6] was -7.72 kcal/mol; in test [7] it was -4.7 kcal/mol.
